Target: T1, purified human Gal-3 (Biolegend) (human, UniProt P17931 1-250)
T1 construct: purified human Galectin-3 bought from Biolegend; No catalogue number printed; source: bought: Biolegend
Assay: cell-free binding assay (coated plate, antibody detection by fluorescence); 96-well plates coated with purified human Gal-3 (0.5 µg in 100 µl, 4 °C overnight), blocked with 50 mg/mL BSA; recombinant human RAB10 0.25 to 0.5 µg/well, 4 h at 30 °C; bound RAB10 detected with rabbit anti-RAB10 and AF488 secondary antibody
Settings: both partners purified

T1 sequence (P17931 whole entry): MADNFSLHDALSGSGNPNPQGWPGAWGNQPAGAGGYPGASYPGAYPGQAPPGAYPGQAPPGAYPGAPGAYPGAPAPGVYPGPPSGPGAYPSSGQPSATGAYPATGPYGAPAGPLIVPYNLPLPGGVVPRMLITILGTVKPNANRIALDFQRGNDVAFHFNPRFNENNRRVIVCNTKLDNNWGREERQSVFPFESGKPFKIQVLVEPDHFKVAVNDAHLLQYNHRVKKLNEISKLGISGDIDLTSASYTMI

- binding result: binds
B1: recombinant human RAB10 (Prospec PRO-1361) (natural protein, UniProt P61026 1-200, looked up)
chain: MAKKTYDLLFKLLLIGDSGVGKTCVLFRFSDDAFNTTFISTIGIDFKIKTVELQGKKIKLQIWDTAGQERFHTITTSYYRGAMGIMLVYDITNGKSFENISKWLRNIDEHANEDVERMLLGNKCDMDDKRVVPKGKGEQIAREHGIRFFETSAKANINIEKAFLTLAEDILRKTPVKEPNSENVDISSGGGVTGWKSKCC
notes: recombinant human RAB10 bought from Prospec; The vendor's data sheet for PRO-1361 should give limits and any His tag; source: bought: Prospec

From publication PMC8192788, “Macropinocytosis requires Gal-3 in a subset of patient-derived glioblastoma stem cells” (Communications Biology, 2021)
